{"source": "patent US7244430", "target": "whole inactivated rabies virus", "assay": "phage ELISA, coated whole inactivated rabies virus"}
{"binder": "SC04-353 (scFv) scFv: EVQLVQSGGGVVQPGRSLRLSCAASGFTFSNYAMHWVRQAPGKGLEWVAVISYDGGNKYYADSVKGRFTMSRDNSKNTLYLQMNSLRAEDTAVYYCARDFWSGYSMVDSYYYYMDVWGKGTTVTVSSGTGGSGGTGSGTGGSTETTLTQSPGTLSLSPGERATLSCRASQSVSNTFLAWYQQKPGQAPRLLIYGASSRATGIPDRFSGSGSGTDFTLTISRLEPEDFAAYYCQQYGSSLTFGPGTKVDIKR", "values": [{"measurement": "OD 492 nm", "result": 0.057, "unit": "OD 492 nm"}]}
{"binder": "SC04-374 (scFv) scFv: QVTLKESGPTLVKPTQTLTLTCTFSGFSLSTSGVGVGWIRQPPGKALEWLAVIYWNDDKLYRPSLKSRLTITKDTSKNQVVLTMTKMDPVDTATYYCAHRHRYYDISGYYRLFSDAFDIWGQGTMVTVSSGTGGSGGTGSGTGGSTQSVVTQPPSVSGAPGQRVTISCTGSSSNIGAGYDVHWYQQLPGTAPKLLIYGNSNRPSGVPDRFSGSKSGTSASLAITGLQAEDEADYYCQSYDSSLSGSVFGGGTKLTVLG", "values": [{"measurement": "OD 492 nm", "result": 0.056, "unit": "OD 492 nm"}]}
{"binder": "SC04-361 (scFv) scFv: EVQLVQSGAEVKKPGESLKISCKASGFSFSTYWIGWVRQMPGKGLEWMGIIYPADSDTRYSPSFQGQVTISADKSISTAYLQWSSLKASDTAMYYCARLRGPYYDFWNGYRETHDAFNVWGQGTMVTVSSGTGGSGGTGSGTGGSTDVVMTQSPDSLAVSLGERATINCKSSQNILDNSDNKNFLAWYQQKPGQPPKLLIYWASARESGVPDRFSGSGSGTDFTLTISSLQAEDVALYYCQQYYNTPITFGQGTRLEIKR", "values": [{"measurement": "OD 492 nm", "result": 0.059, "unit": "OD 492 nm"}]}
